The term Kd denotes the concentration at which binding is half-saturated. Read a low Kd as higher affinity.

In US20230151095A1 (published 2023) one finds Kd data, which are given here for eight molecules.

T1: XENP23311 (His-tagged NKG2D-Fc) (human, UniProt P26718 78-216)
T1 chain: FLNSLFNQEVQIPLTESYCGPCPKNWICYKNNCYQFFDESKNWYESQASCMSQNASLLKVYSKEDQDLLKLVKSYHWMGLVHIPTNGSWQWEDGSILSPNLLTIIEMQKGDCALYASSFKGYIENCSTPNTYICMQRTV

B1: XENP40891 (LB_1002, mAb-scFv VHVL) (antibody)
chain 1: EVQLLESGGGLVQPGGSLRLSCAVSGFSLSSYGVIWVRQAPGKGLEYVSWVSSGGSTNYASSVKGRFTISRDTSKNTVYLQMNSLRAEDTAVYFCARGATNSGTDIWGPGTLVTVSSASTKGPSVFPLAPSSKSTSGGTAALGCLVKDYFPEPVTVSWNSGALTSGVHTFPAVLQSSGLYSLSSVVTVPSSSLGTQTYICNVNHKPSDTKVDKKVEPKSCDKTHTCPPCPAPELLGGPSVFLFPPKPKDTLMISRTPEVTCVVVDVSHEDPEVKFNWYVDGVEVHNAKTKPREEEYNSTYRVVSVLTVLHQDWLNGKEYKCKVSNKALPAPIEKTISKAKGQPREPQVYTLPPSREEMTKNQVSLTCDVSGFYPSDIAVEWESDGQPENNYKTTPPVLDSDGSFFLYSKLTVDKSRWEQGDVFSCSVMHEALHNHYTQKSLSLSPGK
chain 2: not shown
chain 3: DIVMTQSPSSLSASVGDRVTITCRASQSINSWLSWYQQKPGKPPKLLIYGASNLASGVPSRFKGSGSGTDFTLTISSLQPEDFATYYCQNNYGIIAAGATFGGGTKVEIKRTVAAPSVFIFPPSDEQLKSGTASVVCLLNNFYPREAKVQWKVDNALQSGNSQESVTEQDSKDSTYSLSSTLTLSKADYEKHKVYACEVTHQGLSSPVTKSFNRGEC
B2: XENP41335 (1D2B4, 1+1 VLVH) (antibody)
chain 1: EVQLLESGGGLVQPGGSLRLSCAVSGFSLSSYGVIWVRQAPGKGLEYVSWVSSGGSTNYASSVKGRFTISRDTSKNTVYLQMNSLRAEDTAVYFCARGATNSGTDIWGPGTLVTVSSASTKGPSVFPLAPSSKSTSGGTAALGCLVKDYFPEPVTVSWNSGALTSGVHTFPAVLQSSGLYSLSSVVTVPSSSLGTQTYICNVNHKPSDTKVDKKVEPKSCDKTHTCPPCPAPELLGGPSVFLFPPKPKDTLMISRTPEVTCVVVDVSHEDPEVKFNWYVDGVEVHNAKTKPREEEYNSTYRVVSVLTVLHQDWLNGKEYKCKVSNKALPAPIEKTISKAKGQPREPQVYTLPPSREEMTKNQVSLTCDVSGFYPSDIAVEWESDGQPENNYKTTPPVLDSDGSFFLYSKLTVDKSRWEQGDVFSCSVMHEALHNHYTQKSLSLSPGK
chain 2: not shown
chain 3: DIVMTQSPSSLSASVGDRVTITCRASQSINSWLSWYQQKPGKPPKLLIYGASNLASGVPSRFKGSGSGTDFTLTISSLQPEDFATYYCQNNYGIIAAGATFGGGTKVEIKRTVAAPSVFIFPPSDEQLKSGTASVVCLLNNFYPREAKVQWKVDNALQSGNSQESVTEQDSKDSTYSLSSTLTLSKADYEKHKVYACEVTHQGLSSPVTKSFNRGEC
B3: XENP40584 (LB_1001, 2+1 VHVL) (antibody)
chain 1: EVQLLESGGGLVQPGGSLRLSCAVSGFSLSSYGVIWVRQAPGKGLEYVSWVSSGGSTNYASSVKGRFTISRDTSKNTVYLQMNSLRAEDTAVYFCARGATNSGTDIWGPGTLVTVSSASTKGPSVFPLAPSSKSTSGGTAALGCLVKDYFPEPVTVSWNSGALTSGVHTFPAVLQSSGLYSLSSVVTVPSSSLGTQTYICNVNHKPSDTKVDKKVEPKSCDKTHTCPPCPAPELLGGPSVFLFPPKPKDTLMISRTPEVTCVVVDVSHEDPEVKFNWYVDGVEVHNAKTKPREEEYNSTYRVVSVLTVLHQDWLNGKEYKCKVSNKALPAPIEKTISKAKGQPREPQVYTLPPSREEMTKNQVSLTCDVSGFYPSDIAVEWESDGQPENNYKTTPPVLDSDGSFFLYSKLTVDKSRWEQGDVFSCSVMHEALHNHYTQKSLSLSPGK
chain 2: not shown
chain 3: DIVMTQSPSSLSASVGDRVTITCRASQSINSWLSWYQQKPGKPPKLLIYGASNLASGVPSRFKGSGSGTDFTLTISSLQPEDFATYYCQNNYGIIAAGATFGGGTKVEIKRTVAAPSVFIFPPSDEQLKSGTASVVCLLNNFYPREAKVQWKVDNALQSGNSQESVTEQDSKDSTYSLSSTLTLSKADYEKHKVYACEVTHQGLSSPVTKSFNRGEC
B4: XENP41342 (LB_1002, mAb-scFv VLVH) (antibody)
chain 1: EVQLLESGGGLVQPGGSLRLSCAVSGFSLSSYGVIWVRQAPGKGLEYVSWVSSGGSTNYASSVKGRFTISRDTSKNTVYLQMNSLRAEDTAVYFCARGATNSGTDIWGPGTLVTVSSASTKGPSVFPLAPSSKSTSGGTAALGCLVKDYFPEPVTVSWNSGALTSGVHTFPAVLQSSGLYSLSSVVTVPSSSLGTQTYICNVNHKPSDTKVDKKVEPKSCDKTHTCPPCPAPELLGGPSVFLFPPKPKDTLMISRTPEVTCVVVDVSHEDPEVKFNWYVDGVEVHNAKTKPREEEYNSTYRVVSVLTVLHQDWLNGKEYKCKVSNKALPAPIEKTISKAKGQPREPQVYTLPPSREEMTKNQVSLTCDVSGFYPSDIAVEWESDGQPENNYKTTPPVLDSDGSFFLYSKLTVDKSRWEQGDVFSCSVMHEALHNHYTQKSLSLSPGK
chain 2: not shown
chain 3: DIVMTQSPSSLSASVGDRVTITCRASQSINSWLSWYQQKPGKPPKLLIYGASNLASGVPSRFKGSGSGTDFTLTISSLQPEDFATYYCQNNYGIIAAGATFGGGTKVEIKRTVAAPSVFIFPPSDEQLKSGTASVVCLLNNFYPREAKVQWKVDNALQSGNSQESVTEQDSKDSTYSLSSTLTLSKADYEKHKVYACEVTHQGLSSPVTKSFNRGEC
B5: XENP41341 (LB_1001, mAb-scFv VLVH) (antibody)
chain 1: EVQLLESGGGLVQPGGSLRLSCAVSGFSLSSYGVIWVRQAPGKGLEYVSWVSSGGSTNYASSVKGRFTISRDTSKNTVYLQMNSLRAEDTAVYFCARGATNSGTDIWGPGTLVTVSSASTKGPSVFPLAPSSKSTSGGTAALGCLVKDYFPEPVTVSWNSGALTSGVHTFPAVLQSSGLYSLSSVVTVPSSSLGTQTYICNVNHKPSDTKVDKKVEPKSCDKTHTCPPCPAPELLGGPSVFLFPPKPKDTLMISRTPEVTCVVVDVSHEDPEVKFNWYVDGVEVHNAKTKPREEEYNSTYRVVSVLTVLHQDWLNGKEYKCKVSNKALPAPIEKTISKAKGQPREPQVYTLPPSREEMTKNQVSLTCDVSGFYPSDIAVEWESDGQPENNYKTTPPVLDSDGSFFLYSKLTVDKSRWEQGDVFSCSVMHEALHNHYTQKSLSLSPGK
chain 2: not shown
chain 3: DIVMTQSPSSLSASVGDRVTITCRASQSINSWLSWYQQKPGKPPKLLIYGASNLASGVPSRFKGSGSGTDFTLTISSLQPEDFATYYCQNNYGIIAAGATFGGGTKVEIKRTVAAPSVFIFPPSDEQLKSGTASVVCLLNNFYPREAKVQWKVDNALQSGNSQESVTEQDSKDSTYSLSSTLTLSKADYEKHKVYACEVTHQGLSSPVTKSFNRGEC
B6: XENP41336 (1D7B4, 1+1 VLVH) (antibody)
chain 1: EVQLLESGGGLVQPGGSLRLSCAVSGFSLSSYGVIWVRQAPGKGLEYVSWVSSGGSTNYASSVKGRFTISRDTSKNTVYLQMNSLRAEDTAVYFCARGATNSGTDIWGPGTLVTVSSASTKGPSVFPLAPSSKSTSGGTAALGCLVKDYFPEPVTVSWNSGALTSGVHTFPAVLQSSGLYSLSSVVTVPSSSLGTQTYICNVNHKPSDTKVDKKVEPKSCDKTHTCPPCPAPELLGGPSVFLFPPKPKDTLMISRTPEVTCVVVDVSHEDPEVKFNWYVDGVEVHNAKTKPREEEYNSTYRVVSVLTVLHQDWLNGKEYKCKVSNKALPAPIEKTISKAKGQPREPQVYTLPPSREEMTKNQVSLTCDVSGFYPSDIAVEWESDGQPENNYKTTPPVLDSDGSFFLYSKLTVDKSRWEQGDVFSCSVMHEALHNHYTQKSLSLSPGK
chain 2: not shown
chain 3: DIVMTQSPSSLSASVGDRVTITCRASQSINSWLSWYQQKPGKPPKLLIYGASNLASGVPSRFKGSGSGTDFTLTISSLQPEDFATYYCQNNYGIIAAGATFGGGTKVEIKRTVAAPSVFIFPPSDEQLKSGTASVVCLLNNFYPREAKVQWKVDNALQSGNSQESVTEQDSKDSTYSLSSTLTLSKADYEKHKVYACEVTHQGLSSPVTKSFNRGEC
B7: XENP40558 (1D7B4, mAb-scFv VHVL) (antibody)
chain 1: EVQLLESGGGLVQPGGSLRLSCAVSGFSLSSYGVIWVRQAPGKGLEYVSWVSSGGSTNYASSVKGRFTISRDTSKNTVYLQMNSLRAEDTAVYFCARGATNSGTDIWGPGTLVTVSSASTKGPSVFPLAPSSKSTSGGTAALGCLVKDYFPEPVTVSWNSGALTSGVHTFPAVLQSSGLYSLSSVVTVPSSSLGTQTYICNVNHKPSDTKVDKKVEPKSCDKTHTCPPCPAPELLGGPSVFLFPPKPKDTLMISRTPEVTCVVVDVSHEDPEVKFNWYVDGVEVHNAKTKPREEEYNSTYRVVSVLTVLHQDWLNGKEYKCKVSNKALPAPIEKTISKAKGQPREPQVYTLPPSREEMTKNQVSLTCDVSGFYPSDIAVEWESDGQPENNYKTTPPVLDSDGSFFLYSKLTVDKSRWEQGDVFSCSVMHEALHNHYTQKSLSLSPGK
chain 2: not shown
chain 3: DIVMTQSPSSLSASVGDRVTITCRASQSINSWLSWYQQKPGKPPKLLIYGASNLASGVPSRFKGSGSGTDFTLTISSLQPEDFATYYCQNNYGIIAAGATFGGGTKVEIKRTVAAPSVFIFPPSDEQLKSGTASVVCLLNNFYPREAKVQWKVDNALQSGNSQESVTEQDSKDSTYSLSSTLTLSKADYEKHKVYACEVTHQGLSSPVTKSFNRGEC
B8: XENP40590 (1D7B4, 2+1 VHVL) (antibody)
chain 1: EVQLLESGGGLVQPGGSLRLSCAVSGFSLSSYGVIWVRQAPGKGLEYVSWVSSGGSTNYASSVKGRFTISRDTSKNTVYLQMNSLRAEDTAVYFCARGATNSGTDIWGPGTLVTVSSASTKGPSVFPLAPSSKSTSGGTAALGCLVKDYFPEPVTVSWNSGALTSGVHTFPAVLQSSGLYSLSSVVTVPSSSLGTQTYICNVNHKPSDTKVDKKVEPKSCDKTHTCPPCPAPELLGGPSVFLFPPKPKDTLMISRTPEVTCVVVDVSHEDPEVKFNWYVDGVEVHNAKTKPREEEYNSTYRVVSVLTVLHQDWLNGKEYKCKVSNKALPAPIEKTISKAKGQPREPQVYTLPPSREEMTKNQVSLTCDVSGFYPSDIAVEWESDGQPENNYKTTPPVLDSDGSFFLYSKLTVDKSRWEQGDVFSCSVMHEALHNHYTQKSLSLSPGK
chain 2: not shown
chain 3: DIVMTQSPSSLSASVGDRVTITCRASQSINSWLSWYQQKPGKPPKLLIYGASNLASGVPSRFKGSGSGTDFTLTISSLQPEDFATYYCQNNYGIIAAGATFGGGTKVEIKRTVAAPSVFIFPPSDEQLKSGTASVVCLLNNFYPREAKVQWKVDNALQSGNSQESVTEQDSKDSTYSLSSTLTLSKADYEKHKVYACEVTHQGLSSPVTKSFNRGEC

This experiment deals with T1, XENP23311 (His-tagged NKG2D-Fc). Kind of experiment: Octet. (In general: Biolayer interferometry detects binding as a change in optical thickness at a sensor tip.)
Turning to B1, binding was put at a Kd of 327 nM.
With B2 the figure was 41.7 nM; with B3, 122 nM; with B4, 680 nM.
As to B5, the Kd was 359 nM.
Regarding B6, the Kd was found to be 13.9 nM.
In turn, B7 displayed a Kd of 28.8 nM.
In turn, B8 returned a Kd of 21.9 nM.
